Data on 40 sequences can be found in the nanobody polyreactivity screen of Harvey et al. (2022).

The nature of the series: yeast display, Sf9 membrane polyspecificity reagent, FACS + sequencing; frameworks hold sequencing errors. In a few lines:
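Nanobodies came from a synthetic yeast display library in Saccharomyces cerevisiae BJ5465, induced with galactose for 36–48 hours and stained for 1 hour at 4 °C with 10% biotinylated, detergent-solubilized Sf9 membrane reagent. Cells were enriched on streptavidin microbeads and then FACS-sorted, with low and high (top ~1%) gates set on anti-HA fluorescence for expression and streptavidin fluorescence for reagent binding. Each polyreactivity label reflects the gate a clone came from. Genes were amplified by colony PCR, sequenced by MiSeq 2 × 250 and filtered by CDR length.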
For “QVQLVESGGGLVQAGGSLRLSCSASGSTFYYNAMGWYRQAPGKERELVARISRSGGSTYADSVKGRFTISRDNAKNTVYLQMNSLKPEDTAVYYCNAIGYTGPVAYPEYDYWGQGTQVTVSS”, the “polyreactivity (PSR sort gate)” value is given as “low polyreactivity”.

As for “QVQLVESGGGLVQAVGSLRLSCAASGRILYWYAMGWYRQAPGKERELVAAINHGDTSTYYADSVKGRFTISRDNAKNTVYLQMNSLIPEDTAVYYCNVRSYVYSRWYQSTWGYYYWGQGTQVTVSS”, the “polyreactivity (PSR sort gate)” value was “high polyreactivity”.

On to “QVQIVESGGGLVQAGGSLRLSCAASGSTFTRYAMGWYRQAPGKERELVAAISRTGGSRTYYADSVNGRFTISRDNAKNTVYLQMNCLKPEDTAVYYCAKGYWRYLGFLYFFPARDYWGQGTQVTVSS”, for which the “polyreactivity (PSR sort gate)” value is reported as “high polyreactivity”.

Regarding “QVQLVESGGGLVQAGGSLRLRCAASGRTFYSHTMGWYRQAPGKERELVAAIDWSGGRTYYADSVKGRFTISRDNAKNTVYLQMNSLKPEDTAVDYCNTVGYTRRLRSGGYWGQGTQVTVSS”, the “polyreactivity (PSR sort gate)” value was “high polyreactivity”.

As to “QVQLVESGGGLVQAGGSLRLSCAASGITFCSYTMGWYRQAPGKERELVAVISSGGSTNYADSVKGRFTISRDNAKNTVYLQMNSLKPEDTAVYYCAADFRWWYTGFDYWGQGTQVTVSS”, the “polyreactivity (PSR sort gate)” value is reported as “high polyreactivity”.

In the case of “QVQLVESGGGLVQAGGSLRLSCAASGRIFYGYAMGWYRQAPGKERELVASISRRGSSTYYADSVKGRFTISRDNAMNTVYLQMNSLKPEDTAVYYCAAGYYPFNYWGQGTQVTVSS”, the “polyreactivity (PSR sort gate)” value is listed as “high polyreactivity”.

With “QVQLVESGGRLVQARGSLRLICAASGLIIAYYTMGWYRQAPGKEREFVAVIDWIGVSTYYADSVKGRFTISRDNAKNTVYLQMNSLKPEDTAVYYCNADNAFPSPKSSLDYWGQGTQVTVSS”, the “polyreactivity (PSR sort gate)” value is on record as “low polyreactivity”.

As to “QVHLVESGGGLVQAGGSLLLSCAASGFTFRTNAMGWNRQAPGKERELVAVISRRGGSTYYADSVKGRFTISRDNAKNTVYIQMNSLKPEDTAVYYCNAGDGTVGRTYYRSYDYWGQGTQVTVSS”, the “polyreactivity (PSR sort gate)” value is “high polyreactivity”.

In the case of “QVQLVESGGSLVQAGGSLRLSCAASGSIFFYYAMGWYRQAPGKERELVAAISWSGGSTYYADSVKGRFTISRDNAKNTVYLQMNSLKPEDTAVYYCAADRPYAGRYWKGYHSALYDYWGQGTQVTVSS”, the “polyreactivity (PSR sort gate)” value is “low polyreactivity”.

On to “QVQLVESGGGLVQAGGSLRLSCAASGNTFPIYAMGWSRQAPGKERELVAAIRSSTGSTYYADSVKGRFTISRDYAKNTVYLQMNSLKPEATAVYYCAAAGVTSVVYGTRYYYWGQGTQVTVSS”, for which the “polyreactivity (PSR sort gate)” value was “high polyreactivity”.

Turning to “QVQLVESAGGLDQAGGSLRLICAASGGTFSFYAMGWYRHAPGKEREFVAAITASDGSTYADSVKGRFTISRDNAKNTVYLQMNSLKPEDTAVYYCAVAGGEFSSYGYWGQGTQVTVSS”, the “polyreactivity (PSR sort gate)” value is “low polyreactivity”.

In the case of “QVQLVESGGGLVQAGGSLRLSCAASGSIYGGYAMGWYRQAPGKEREFVAAISRSGSSTYYADSVKGRFTISRDNAKNTVYLQMNSLKPEDTAVYSCAARYAGKAPGYRRYDYWGQGTQVTVSS”, the “polyreactivity (PSR sort gate)” value is “high polyreactivity”.

As to “QVQLVESGGGLVQAGGSLRLSCAASGYIFGWYTMGWYRQAPGKERELVAAISGGGRTYYADSVKGRFTISRDNAKNTVYLQMNSLKPEDTAVYYCNDYSSYIKYDYWGQGTQVTVSS”, the “polyreactivity (PSR sort gate)” value was “high polyreactivity”.

Regarding “QVQLVESGGGLVQAGGSLRLSCAASGFIFTDNAMGWYRQAPGKDREFVAAITYSGGSTYYADSVKGRFTISRDNAKNTVYFQMNSLKPVDTAVYYCNKDVFPAPGGVTAYEYEYWGQGTQVTVSS”, the “polyreactivity (PSR sort gate)” value is given as “low polyreactivity”.

For the sequence “QVQLVESGGGLVQAGGSLRLSCAASGSIFEGYGMGWYRQAPGKERELVASISTGDSTKYADSVKGRFTISRDNAKNTVYLQMNSLKPEDTAVYYCNAPYFYLPHKYDYWGQGTQVTVSS”, the “polyreactivity (PSR sort gate)” value is listed as “low polyreactivity”.

For the sequence “QVQLVESGGGLVQAGGSLRLSCAASGRIFKRYAMGWYRQAPGKERELVATITNGGRTSYADSVKGRFTISRDNAKNTVYLQMNSLKPEDTAVYYCNAYGQTSRPLVYGWRYDYWGQGTQVTVSS”, the “polyreactivity (PSR sort gate)” value was “high polyreactivity”.

“QVQLVESGGGLVQAGGSLRLSCAASGSIFVYNDMGGYRQAPGKERELVAGIDWSGDRTYADSVKGRFTISRDNAKNTVYLQMNSLKPEDTAVYYCIADEWRWDEILPYAVDYWGQGTQVTVSS”: the “polyreactivity (PSR sort gate)” value is “low polyreactivity”.

In the case of “LVQLVESGGGLVQAGGSLRLSCAASGFIFGYYAMGWYRQAPGKERELVAASTRSGGSTRYADSVKGRFTISRDKAKNTVYLQMNSLKPEDSAVYYCAADSCPINLYEDYWGQGTQVTVSS”, the “polyreactivity (PSR sort gate)” value is reported as “high polyreactivity”.

For “QVQLVESGGGLVQSGGSLRLSCAGSGSTFHYNAMGWYRQAPGKEREFVAAISRTGTSTYYADSVKGRFTISRDNAKNTVYLQMNSLKPEDTAVYYFAAKSLRSGMGYWGQGTQVTVSS”, the “polyreactivity (PSR sort gate)” value was “high polyreactivity”.

As to “QVQLVESGGGLVQAGGSLRLSCAASGITLTYYAMGWYRQAPGKERELVAAITWNGGHTYYADSVKGRFTISRDNAKNTVYLQMISQKPEDTAVYYCAAELWAYTWYWHSDYWGQGTQVTVSS”, the “polyreactivity (PSR sort gate)” value is given as “low polyreactivity”.

Consider “QVQLVESGGGLVQAGGSLRLSCAASGSIFYPNAMGWYRQAPGKERELVAAINGGGSTYYADSVKGRFTISRDNAKNTVYLQMNSLKPEDTAVYYCAADSNDVYYDTPSYDYWGQGTQVTVSS”, for which the “polyreactivity (PSR sort gate)” value is given as “low polyreactivity”.

Turning to “QFQLVESGGGLVQAGGSLRLSCAASGRIFVPNGMGWYRQAPGKERELVAVIDWSGGSTYYADSVKGRFTISRDNAKNTVYLQMNRLKPEDTAVYYCNAYPYDESDYWGQGTQVTVSS”, the “polyreactivity (PSR sort gate)” value was “low polyreactivity”.

As for “PVQLVESGGGLVQAGGSLRLSCACSGRIFIYNSMGWYRQATGKEREFVAAISSSGGSTYYADSVKGRFTISRDNAKNTVYLHLNSLKPEDTAVYYCAAGGWPYSGGWFFQPNYYYWGQGTQVTVSS”, the “polyreactivity (PSR sort gate)” value is “low polyreactivity”.

Turning to “QVQLVETGGGLVQAGGSLRLSCAASGFIFSTYAMGWSRQAPGKERELVAAISWSGGRTNYADSVKGRFTISRDHAKNTVYLQMNSLKPEDTAVYYCAVGGERGARIGSNHRGSRYDYWGQGTQVTVSS”, the “polyreactivity (PSR sort gate)” value was “high polyreactivity”.

For the sequence “QVQLVESGGGLVQAGGSLRLSCAASGSIFESYAMGWYRQAPGKERELVASISGGGSTYYADSVKGRFTISRDNAKNTVYLQMNSLKPEDTAGYYCATVYVRYRQSRLIRYGYWGQGTQVTVSS”, the “polyreactivity (PSR sort gate)” value was “high polyreactivity”.

On to “QVQLVESGGGLVQAGGSLRLSCAASGVIFKAYAMGWYRPAPGKERELVAAITSSGGRTYYADSVKGRFTISRDNAKNTVYLQMNSLKPEDSAVYYCNARGVLRTSLYRYDYWGQGTQLTVSS”, for which the “polyreactivity (PSR sort gate)” value is recorded as “high polyreactivity”.

On to “QEQLVESGGGLVQAGGSLRLICADSGRTLVYYGMGWYRQAPGKERELVAAISGSGGRTYYADSVKGRFTISRDNAKNTVYLQMNSLKPEDTAVYYCAALCRSYPAKYASYDYCGQGTQVTVSS”, for which the “polyreactivity (PSR sort gate)” value is “high polyreactivity”.

With “QVQLVESGGGLVQAGGSLRLSCAASGLTFGGNAMGWYRQAPGKERELVAAISWNGGRTYYADSVKGRFTISRDNAKNTVDLQMNSLKPEDTAVYYCNTPVFSKSSRKYYYWGQGTQVTVSS”, the “polyreactivity (PSR sort gate)” value is on record as “high polyreactivity”.

As for “QVQLVESGGGLVQAGGSLRLSCAASGRTFYSYVMGWYRQSPGKERELVAAINNSGGGTYYADSVKGRFTISRDNAKNTVYLQMNSLKPEDTAVYYCNAVGGYWFDYWGQGTQVTVSS”, the “polyreactivity (PSR sort gate)” value is reported as “high polyreactivity”.

For the sequence “QVQLVESGGGLVQAGGRLRLSCAASGRIFVYYAMGWYRQAPGKERELVAAINSSGGRTYYADSVKGRFTISRDNAKNTVYLQMNSLKPEDTAVYYCAARKYSYPVAAHYYWGQGTQVTVSS”, the “polyreactivity (PSR sort gate)” value is listed as “high polyreactivity”.

As for “QVQLVESGGGLVQAGGSLRLSCAASGSIFSTNDMGWYRQAPGKERELVAAISVSGGSTYYADSVKGRFTISRDNAKNTVYLQMNSLKPEDTAVYYCNADYTRGTMYYWGQGTQVTGSS”, the “polyreactivity (PSR sort gate)” value is on record as “low polyreactivity”.

Consider “QGQLVESGGGLVQAGASLSLTSDDYRTIVKTYAMGSYRPAPGKESEMVAAISWRGGSTYYADSVKGRITISRDNAKNTVYLQMNSMKPVDTAVYYCVAVRNFGTRTLWYRYGYWGQGSQVTVSS”, for which the “polyreactivity (PSR sort gate)” value was “high polyreactivity”.

Regarding “QVQLVESGGGLVQAGGSLRLSCAASGIIFIGNAMGWYRQAPGKERELVAAISRRGGGTYYADSVKGRFTISRDNAKNTVYLQMNSLKPEDTAVYYCNAEITVNDDDYWGQGTQVTVSS”, the “polyreactivity (PSR sort gate)” value was “high polyreactivity”.

“QVQLVESGGGLVQAGGSLRLSCAASGLINYYYAMGWYRQAPGKERELVAAISGSSGASTYYADSVKGRFTISRDNAKNTVYLQMNSLKPEDTAVYYCATPVASVTGYDYWGQGTQVTVSS”: the “polyreactivity (PSR sort gate)” value was “low polyreactivity”.

“QVQRVESGGGLVQAGGSLRLSCAASGLTFNNNAMGCYRQAPGTARELVAAISRTAVRTYYADSVKGRFTISRDNAKNTVYLQMNSLKPEDTAVYYCNGVSYYGGYPVTYDYWGQGTQVTVSS”: the “polyreactivity (PSR sort gate)” value is on record as “high polyreactivity”.

In the case of “QVQLVESGGGLVQAGGSLRLSCAASGYIFGVNALGWYRQAPGKERELVAAIDSGSRTYYADSVKGRFTISRDNAKNTVYLQMNSLKPEDTAVYYFATTFYVSYGGGYYTIWYDYWGQGTQVTVSS”, the “polyreactivity (PSR sort gate)” value is given as “low polyreactivity”.

With “QVQLVESGGGLVQAGGSLRLSCAASGSTFPQYAMGWYRQAPGKERELVAAISRSGGSTYYADSVKGRFTISRDNAKNTVYLQMNSLKPEDTAVYYCNVKSGFWFYPTMDYWGQGTQVTVSS”, the “polyreactivity (PSR sort gate)” value is listed as “high polyreactivity”.

Consider “QVQLVESGGGLVQAGGSLRLSSAASGRTFPSYAMGWYRQAPGKERELVAAISSSGGSTYYADSVKGRFTISRDNAKNTFYLQMNSLKPEDTAVYYCNKQFPYAKYYIMGYWGQGTQVTVSS”, for which the “polyreactivity (PSR sort gate)” value was “high polyreactivity”.

“QVQLVESGGGLVQAGGSLRLSCAASGSIFSIYAMGWYRQAPGKERELVAAIDSGTSTTYADSVKGRFTISRDNAKNTVYLQMKSLKPEDTAVYYCAAALYSDVAAVATYGYYWGQGTQVTVSS”: the “polyreactivity (PSR sort gate)” value is “low polyreactivity”.

For “QVQLVESGGGLVQAGGSLRLSCAASGRIFAFYAMGGYRQAPGKERELVAAITSGGSTKYADSVKGRFTISRDNAKNTVYLHMKSLKPEDTAVYYSAAQYRYQRYSDAMEYWGQGTQVTVSS”, the “polyreactivity (PSR sort gate)” value was “high polyreactivity”.
